The record followed here is doi:10.1101/2024.08.22.609182.

The test addresses AIFM1 OM (obligate monomeric AIFM1 variant, triple mutant in the dimerisation interface) (human) (UniProt O95831). Briefly: mass photometry.

Chain of AIFM1 OM (obligate monomeric AIFM1 variant, triple mutant in the dimerisation interface) (human) (O95831 102-613, change not shown): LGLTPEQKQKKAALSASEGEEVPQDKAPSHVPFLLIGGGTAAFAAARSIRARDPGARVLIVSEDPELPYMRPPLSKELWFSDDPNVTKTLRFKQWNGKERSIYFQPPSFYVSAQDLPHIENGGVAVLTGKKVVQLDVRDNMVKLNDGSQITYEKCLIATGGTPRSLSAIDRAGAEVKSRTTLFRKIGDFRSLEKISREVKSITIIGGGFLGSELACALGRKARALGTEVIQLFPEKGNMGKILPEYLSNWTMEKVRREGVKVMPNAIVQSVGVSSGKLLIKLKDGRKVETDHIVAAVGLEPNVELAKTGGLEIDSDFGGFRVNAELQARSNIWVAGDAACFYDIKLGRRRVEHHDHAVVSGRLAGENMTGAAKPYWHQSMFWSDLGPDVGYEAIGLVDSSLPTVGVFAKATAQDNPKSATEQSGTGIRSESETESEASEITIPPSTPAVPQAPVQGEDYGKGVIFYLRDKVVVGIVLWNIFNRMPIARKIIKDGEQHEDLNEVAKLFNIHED

Substance “adenylate kinase 2 (AK2), recombinant human (from UniProt P54819 1-239) (enzyme)” yielded a stoichiometry N (AK2 per AIFM1 (printed as 1:1)) of 1.
